The values that follow come from article PMC4945075.

The target in the experiment is T1, His-tagged cyt-SpoIIE (cytosolic part of SpoIIE), fluorescently labeled (B. subtilis).
T1 sequence (P37475 whole entry, looked up): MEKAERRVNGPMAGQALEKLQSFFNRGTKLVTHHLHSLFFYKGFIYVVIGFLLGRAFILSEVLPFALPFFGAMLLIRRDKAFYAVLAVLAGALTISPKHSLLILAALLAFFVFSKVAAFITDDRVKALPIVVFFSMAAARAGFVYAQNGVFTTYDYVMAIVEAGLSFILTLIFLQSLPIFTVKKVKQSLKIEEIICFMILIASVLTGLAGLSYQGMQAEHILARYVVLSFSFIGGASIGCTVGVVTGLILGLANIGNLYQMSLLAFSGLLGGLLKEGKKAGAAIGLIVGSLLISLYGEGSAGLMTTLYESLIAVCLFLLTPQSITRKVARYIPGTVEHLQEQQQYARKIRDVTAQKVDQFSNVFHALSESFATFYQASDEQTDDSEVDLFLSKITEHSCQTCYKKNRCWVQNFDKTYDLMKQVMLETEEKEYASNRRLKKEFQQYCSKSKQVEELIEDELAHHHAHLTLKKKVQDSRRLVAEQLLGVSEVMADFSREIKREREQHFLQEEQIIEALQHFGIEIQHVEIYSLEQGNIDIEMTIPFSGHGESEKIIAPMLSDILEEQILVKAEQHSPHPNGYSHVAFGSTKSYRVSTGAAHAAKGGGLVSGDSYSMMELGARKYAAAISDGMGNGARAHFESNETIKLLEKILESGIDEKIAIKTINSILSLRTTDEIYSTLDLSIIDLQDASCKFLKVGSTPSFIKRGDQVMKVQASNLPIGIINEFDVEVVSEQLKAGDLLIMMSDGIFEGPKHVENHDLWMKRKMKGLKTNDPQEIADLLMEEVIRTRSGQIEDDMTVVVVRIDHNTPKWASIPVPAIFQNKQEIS
In words: MST; labeled cyt-SpoIIE constant at 34 μM, unlabeled cyt-RodZ titrated 6.7 nM to 221 μM; 25 mM Tris-HCl pH 8.0, 150 mM NaCl, 40 mM imidazole, 5% glycerol, 0.05% Tween-20; Monolith NT.115; 'preliminary Kd'.

B1: His6-tagged cyt-RodZ (cytosolic part of RodZ) (domain or fragment)
chain: MFVVTELGIRLKEAREEKAMSLDDLQAATKIQKRYLTALEEGNYDIIPGKFYVRAFIKQYAEAVGLDADQLFEEHKKDIPNTYHDDVSEKI
What is called Kd is the concentration at which binding is half-saturated. The low end stands for tighter binding, the high end for weaker binding. In turn, B1 showed a Kd of 10 µM. That is a double-digit micromolar value.
